Seven molecules from paper PMC4755848 (Proteins, 2016) can be followed below.

The target of series [1] is BaiE (bile acid 7α-dehydratase) from Clostridium scindens ATCC35704 (Clostridium scindens ATCC35704) (UniProt P19412). Put plainly: SEC.
Series [2] deals with BaiE (bile acid 7α-dehydratase) from Clostridium hiranonis DSM13275 (Clostridium hiranonis DSM13275). Put plainly: SEC.
Series [3] addresses BaiE (bile acid 7α-dehydratase) from Clostridium hylemonae DSM15053 (Clostridium hylemonae DSM15053). Nature of the series: SEC.
Substrate in series [4]: C[C@H](CCC(=O)O)[C@H]1CC[C@H]2[C@@H]3[C@H](O)CC4=CC(=O)CC[C@]4(C)[C@H]3CC[C@]12C
Nature of the series: purified protein. Format: biochemical, [Clostridium] hylemonae. Conditions: 20 mM Tris-HCl pH 7.3, 25 °C.

Substrate in series [5]: C[C@H](CCC(=O)SCCNC(=O)CCNC(=O)[C@H](O)C(C)(C)COP(=O)(O)OP(=O)(O)OC[C@H]1O[C@@H](n2cnc3c(N)ncnc32)[C@H](O)[C@@H]1OP(=O)(O)O)[C@H]1CC[C@H]2[C@@H]3[C@H](O)CC4=CC(=O)CC[C@]4(C)[C@H]3CC[C@]12C
Put plainly: purified protein. Format: biochemical, [Clostridium] hylemonae. As to conditions: 20 mM Tris-HCl pH 7.3, 25 °C.

Substrate in series [6]: C[C@H](CCC(=O)O)[C@H]1CC[C@H]2[C@@H]3[C@H](O)CC4=CC(=O)CC[C@]4(C)[C@H]3CC[C@]12C
Nature of the series: purified protein. Format: biochemical, [Clostridium] scindens. As to conditions: 20 mM Tris-HCl pH 7.3, 25 °C.

Substrate in series [7]: C[C@H](CCC(=O)SCCNC(=O)CCNC(=O)[C@H](O)C(C)(C)COP(=O)(O)OP(=O)(O)OC[C@H]1O[C@@H](n2cnc3c(N)ncnc32)[C@H](O)[C@@H]1OP(=O)(O)O)[C@H]1CC[C@H]2[C@@H]3[C@H](O)CC4=CC(=O)CC[C@]4(C)[C@H]3CC[C@]12C
Put plainly: purified protein. Format: biochemical, [Clostridium] scindens. Conditions: 20 mM Tris-HCl pH 7.3, 25 °C.

The series “SEC” concerns the molecule itself. Put plainly: SEC. (SEC sorts molecules by how far they enter the pores of the column.)
Substrate in series [8]: C[C@H](CCC(=O)O)[C@H]1CC[C@H]2[C@@H]3[C@H](O)CC4=CC(=O)CC[C@]4(C)[C@H]3CC[C@]12C
Put plainly: purified protein. As to conditions: 20 mM Tris-HCl pH 7.3, 25 °C. Format: biochemical, Peptacetobacter hiranonis.

Substrate in series [9]: C[C@H](CCC(=O)SCCNC(=O)CCNC(=O)[C@H](O)C(C)(C)COP(=O)(O)OP(=O)(O)OC[C@H]1O[C@@H](n2cnc3c(N)ncnc32)[C@H](O)[C@@H]1OP(=O)(O)O)[C@H]1CC[C@H]2[C@@H]3[C@H](O)CC4=CC(=O)CC[C@]4(C)[C@H]3CC[C@]12C
Put plainly: purified protein. Format: biochemical, Peptacetobacter hiranonis. As to conditions: 20 mM Tris-HCl pH 7.3, 25 °C.

Usually stoichiometry N stands for the number of molecules, sites or subunits per partner or assembly. By kcat is commonly meant the number of substrate molecules converted per active site and unit of time at saturation. A word on the kcat/Km: it is the second-order rate constant that governs catalysis at low substrate concentration.

Regarding “BaiE (bile acid 7α-dehydratase) from Clostridium scindens ATCC35704 (from UniProt P19412 1-166) (enzyme)”, in series [1], the stoichiometry N is 3.

Turning to “BaiE (bile acid 7α-dehydratase) from Clostridium hiranonis DSM13275 (enzyme)”, the stoichiometry N in series [2] came to 3.

For the molecule “BaiE (bile acid 7α-dehydratase) from Clostridium hylemonae DSM15053 (enzyme)”, the stoichiometry N in series [3] was determined as 3.

B1: BaiE_15053 ([Clostridium] hylemonae DSM 15053) (protein)
chain: MSIEERLEALEKEIQKMKDIEEIKKLKGQYFRCLDGKFWDELETTLSPNIVTSYSNGKLVFHGPKEVTDYFKKAMPREEISMHMGHTPEITIDSETTATGRWYLEDKLIFTEESKYAGSGVNGGAFYTDKYEKVDGKWYILETGYLRVYEEHFMRDPKIKITMNMHKTK
Consider B1, for which, in “purified protein [4]”, the Km is given as 21.0 (2.0) μM, the kcat turned out to be 18.6 s⁻¹ and the kcat/Km amounted to 900000 M⁻¹ s⁻¹. Further, in “purified protein [5]”, the Km was 11.4 (1.9) μM, the kcat was 12.6 s⁻¹ and the catalytic efficiency (kcat/Km) was 1.1e+06 M⁻¹ s⁻¹.

B2: BaiE_35704 ([Clostridium] scindens ATCC 35704) (protein)
chain: MTLEERVEALEKELQKMKDIEAIKELKGKYFRCLDGKMWDELETTLSPNIVTSYSNGKLVFHSPKEVTDYLKSTMPKEEISMHMGHTPEITIDSETTATGRWYLEDKLIFTDGKYKDVGINGGAFYTDKYEKIEGQWYILETGYVRIYEEHFMRDPKIHITMNMHK
In the case of B2, in the series “purified protein [6]”, the Km is 11.0 (1.9) μM, the kcat was 18 s⁻¹ and the kcat/Km was 1.6e+06 M⁻¹ s⁻¹. In addition, in the series “purified protein [7]”, the Km is 1.2 (0.2) μM, the turnover number (kcat) was determined as 15 s⁻¹ and the kcat/Km came out at 1.25e+07 M⁻¹ s⁻¹.

B3: BaiE (bile acid 7α-dehydratase) from Clostridium scindens VPI12708 (enzyme, UniProt P19412 1-166, looked up)
chain: MTLEERVEALEKELQEMKDIEAIKELKGKYFRCLDGKMWDELETTLSPNIVTSYSNGKLVFHSPKEVTDYLKSSMPKEEISMHMGHTPEITIDSETTATGRWYLEDRLIFTDGKYKDVGINGGAFYTDKYEKIDGQWYILETGYVRIYEEHFMRDPKIHITMNMHK
Take B3: the “stoichiometry N” value in “SEC” worked out at 3. In “purified protein [6]”, the Km is on record as 9.9 (2.1) μM, the kcat worked out at 24 s⁻¹ and the catalytic efficiency (kcat/Km) came out at 2.4e+06 M⁻¹ s⁻¹. Moreover, in “purified protein [7]”, the Km is given as 4.0 (0.56) μM, the kcat amounted to 98 s⁻¹ and the specificity constant (kcat/Km) came out at 2.45e+07 M⁻¹ s⁻¹.

B4: BaiE_13275 (Peptacetobacter hiranonis DSM 13275) (protein)
chain: MTLEARIEALEKEIQRLNDIEAIKQLKAKYFRCLDGKLWDELETTLSPNIETSYSDGKLVFHSPKEVTEYLAAAMPKEEISMHMGHTPEITIDSENTATGRWYLEDNLIFTDGKYKNVGINGGAFYTDKYEKIDGQWYIKETGYVRIFEEHFMRDPKIHITSNMHKEK
For the molecule B4, in the series “purified protein [8]”, the Km is listed as 25.0 (1.8) μM, the kcat is 4.4 s⁻¹ and the catalytic efficiency (kcat/Km) came out at 200000 M⁻¹ s⁻¹. Further, in the series “purified protein [9]”, the Km is given as 208.0 (40.0) μM, the kcat amounted to 22.2 s⁻¹ and the kcat/Km amounted to 100000 M⁻¹ s⁻¹.
